From publication doi:10.1101/291294 (bioRxiv, 2018) come the findings set out here.

B1: GIM-containing peptide EDEWVNVQY (peptide)
peptide: EDEWVNVQY
B2: GST-tagged human GABARAP (natural protein)
chain: MKFVYKEEHPFEKRRSEGEKIRKKYPDRVPVIVEKAPKARIGDLDKKKYLVPSDLTVGQFYFLIRKRIHLRAEDALFFFVNNVIPPTSATMGQLYQEHHEEDFFLYIAYSDESVYGL

The experiment “GST-tagged human GABARAP” addresses B2. Description: pull-down.
Experiment [1] deals with Recombinant WT XIAP protein (human, UniProt P98170 1-497). Kind of experiment: pull-down.
Chain of Recombinant WT XIAP protein (P98170 whole entry): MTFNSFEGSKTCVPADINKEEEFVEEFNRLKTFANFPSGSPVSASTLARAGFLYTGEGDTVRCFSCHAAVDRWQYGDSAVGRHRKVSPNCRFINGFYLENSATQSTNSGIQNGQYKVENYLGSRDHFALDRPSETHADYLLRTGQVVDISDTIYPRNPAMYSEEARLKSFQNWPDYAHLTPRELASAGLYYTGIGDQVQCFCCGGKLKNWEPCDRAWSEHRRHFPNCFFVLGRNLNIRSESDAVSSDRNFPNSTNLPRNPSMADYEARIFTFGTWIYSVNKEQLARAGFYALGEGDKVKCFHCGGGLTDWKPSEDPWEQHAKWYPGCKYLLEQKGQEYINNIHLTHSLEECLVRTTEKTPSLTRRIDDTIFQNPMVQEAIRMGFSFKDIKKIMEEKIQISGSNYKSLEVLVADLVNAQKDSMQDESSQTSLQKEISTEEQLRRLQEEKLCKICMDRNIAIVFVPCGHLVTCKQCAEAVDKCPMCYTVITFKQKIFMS

For the molecule B1, the binding result with GST-tagged human GABARAP is given as “binds”.
Take B2: the binding result in experiment [1] was “binds”.
